Experimental data as given in patent US20230303667A1.
Values joined by “and” are separate entries in the source; they are usually repeats but may differ in a detail not shown here. Identical values can stand only once.

Target: Ebola virus Full length GP (Ebola virus (strain not stated))
Test: ELISA on Full length GP

Substance: 13F6 (antibody)
- EC50: 0.004 µg/mL and 0.0027 nM
